This assay concerns the target T1, 3HA-Atg13 (S. cerevisiae, UniProt Q06628 1-738, hyper-phosphorylated (sites not given)).
T1 sequence (looked up): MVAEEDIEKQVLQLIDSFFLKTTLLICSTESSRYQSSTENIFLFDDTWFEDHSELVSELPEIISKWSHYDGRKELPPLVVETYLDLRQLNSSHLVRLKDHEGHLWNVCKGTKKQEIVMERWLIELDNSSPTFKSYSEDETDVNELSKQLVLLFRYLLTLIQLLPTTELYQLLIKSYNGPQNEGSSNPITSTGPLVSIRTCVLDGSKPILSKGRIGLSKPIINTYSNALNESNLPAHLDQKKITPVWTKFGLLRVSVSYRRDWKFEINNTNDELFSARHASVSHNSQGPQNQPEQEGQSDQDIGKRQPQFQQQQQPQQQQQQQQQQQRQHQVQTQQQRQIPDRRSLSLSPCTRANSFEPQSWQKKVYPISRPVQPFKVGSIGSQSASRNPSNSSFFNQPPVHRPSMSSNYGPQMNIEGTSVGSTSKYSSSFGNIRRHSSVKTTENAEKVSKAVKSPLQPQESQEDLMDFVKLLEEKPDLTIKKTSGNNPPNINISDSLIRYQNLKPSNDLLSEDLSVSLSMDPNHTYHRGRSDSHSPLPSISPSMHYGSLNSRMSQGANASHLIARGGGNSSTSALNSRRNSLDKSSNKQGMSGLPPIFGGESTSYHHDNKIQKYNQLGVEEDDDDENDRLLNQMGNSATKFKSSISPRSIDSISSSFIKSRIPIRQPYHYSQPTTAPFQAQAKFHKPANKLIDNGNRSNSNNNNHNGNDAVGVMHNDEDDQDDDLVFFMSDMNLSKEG
As to the kind of experiment: pull-down.

B1: 6His-3FLAG-Cdc14m (enzyme, S. cerevisiae, UniProt Q00684 1-551, looked up)
chain: MRRSVYLDNTIEFLRGRVYLGAYDYTPEDTDELVFFTVEDAIFYNSFHLDFGPMNIGHLYRFAVIFHEILNDPENANKAVVFYSSASTRQRANAACMLCCYMILVQAWTPHQVLQPLAQVDPPFMPFRDAGYSNADFEITIQDVVYGVWRAKEKGLIDLHSFNLESYEKYEHVEFGDFNVLTPDFIAFASPQEDHPKGYLATKSSHLNQPFKSVLNFFANNNVQLVVRLNSHLYNKKHFEDIGIQHLDLIFEDGTCPDLSIVKNFVGAAETIIKRGGKIAVHSKAGLGRTGCLIGAHLIYTYGFTANECIGFLRFIRPGMVVGPQQHWLYLHQNDFREWKYTTRISLKPSEAIGGLYPLISLEEYRLQKKKLKDDKRVAQNNIEGELRDLTMTPPSNGHGALSARNSSQPSTANNGSNSFKSSAVPQTSPGQPRKGQNGSNTIEDINNNRNPTSHANRKVVIESNNSDDESMQDTNGTSNHYPKVSRKKNDISSASSSRMEDNEPSATNINNAADDTILRQLLPKNRRVTSGRRTTSAAGGIRKISGSIKK
Regarding B1, the binding result was “binds”.

The record behind these values is paper doi:10.1101/2021.07.21.453268 (bioRxiv, 2021).
